{"source": "paper PMC11677236", "about": "“TIPE drives a cancer stem-like phenotype by promoting glycolysis via PKM2/HIF-1α axis in melanoma” (eLife, 2024)", "binders": {"B1": {"name": "TIPE-HA used in the GST-pull down assay (natural protein, UniProt O95379 1-198, looked up)", "chain": "MHSEAEESKEVATDVFNSKNLAVQAQKKILGKMVSKSIATTLIDDTSSEVLDELYRVTREYTQNKKEAEKIIKNLIKTVIKLAILYRNNQFNQDELALMEKFKKKVHQLAMTVVSFHQVDYTFDRNVLSRLLNECREMLHQIIQRHLTAKSHGRVNNVFDHFSDCEFLAALYNPFGNFKPHLQKLCDGINKMLDEENI", "notes": "TIPE (TNFAIP8); The legend says 'using purified GST-tagged PKM2 and TIPE-HA'; It may be the same construct as m3"}}, "target": "T1, GST-tagged PKM2 (UniProt P14618 1-531)", "T1 construct": "Pyruvate kinase isoform M2 (PKM2); also called GST-PKM2; source: purified", "T1 sequence (P14618 whole entry, canonical isoform)": "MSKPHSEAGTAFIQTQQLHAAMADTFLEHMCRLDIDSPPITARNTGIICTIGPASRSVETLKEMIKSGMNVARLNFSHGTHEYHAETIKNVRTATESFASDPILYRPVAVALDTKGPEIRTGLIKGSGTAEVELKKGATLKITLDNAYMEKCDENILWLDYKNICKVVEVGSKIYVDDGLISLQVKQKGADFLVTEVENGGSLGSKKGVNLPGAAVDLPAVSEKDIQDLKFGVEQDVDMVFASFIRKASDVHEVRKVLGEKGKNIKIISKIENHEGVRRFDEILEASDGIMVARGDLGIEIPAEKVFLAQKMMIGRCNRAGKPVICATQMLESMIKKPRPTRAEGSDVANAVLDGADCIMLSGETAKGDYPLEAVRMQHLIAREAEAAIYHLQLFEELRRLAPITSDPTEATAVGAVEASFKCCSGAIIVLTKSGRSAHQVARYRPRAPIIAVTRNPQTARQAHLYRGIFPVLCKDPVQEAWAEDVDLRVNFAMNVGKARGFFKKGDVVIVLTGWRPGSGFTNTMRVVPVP", "assay": "pull-down; GST-pull down in vitro using purified GST-tagged PKM2 and TIPE-HA", "details": "both partners purified", "data": [{"binder": "B1", "values": [{"measurement": "binding result", "value": "binds"}]}]}
